Residue numbers refer to the chain shown, from its start. In names and notes the source's numbering stands. Like-named read-outs stand apart in the source and are kept apart here.
B1: MuJovi-1 (antibody, V domains shown)
VH: EVRLQQSGPDLIKPGASVKMSCKASGYTFTGYVMHWVKQRPGQGLEWIGFINPYNDDIQSNERFRGKATLTSDKSSTTAYMELSSLTSEDSAVYYCARGAGYNFDGAYRFFDFWGQGTTLTVSS
VL: DVVMTQSPLSLPVSLGDQASISCRSSQRLVHSNGNTYLHWYLQKPGQSPKLLIYRVSNRFPGVPDRFSGSGSGTDFTLKISRVEAEDLGIYFCSQSTHVPYTFGGGTKLEIK
B2: Mut2 (HuJovi-1 VH T28K, Y32F), human IgG1 (antibody, V domains shown)
VH: QVQLVQSGAEVKKPGASVKVSCKASGYKFTGFVMHWVRQAPGQGLEWMGFINPYNDDIQSNERFRGRVTMTRDTSISTAYMELSRLRSDDTAVYYCARGAGYNFDGAYRFFDFWGQGTMVTVSS
VL: B1 VL with V2I, S14T, L15P, D17E, Q18P, K50R, L88V, I90V, F92Y, G105Q
notes: as the VH of m1 with the stated changes; positions in Kabat numbering; constant region of the human IgG1 heavy chain; as the light chain of m1; IgG1; also called Lys28/Phe32; Thr28Lys, Tyr32Phe double mutant; source: ExpiCHO, transient transfection, purified (MabSelect SuRe)
B3: RFN (Mut4; HuJovi-1 VH T28R, Y32F, A96N), human IgG1 (antibody, V domains shown)
VH: B2 VH with K28R, A100N
VL: B1 VL with V2I, S14T, L15P, D17E, Q18P, K50R, L88V, I90V, F92Y, G105Q
notes: as the VH of m1 with the stated changes; positions in Kabat numbering; constant region of the human IgG1 heavy chain; as the light chain of m1; IgG1 in the SPR; also called Arg28/Phe32/Asn96; source: ExpiCHO, transient transfection, purified (MabSelect SuRe)
B4: HuJovi-1 (humanized Jovi-1), human IgG1 (antibody, V domains shown)
VH: B2 VH with K28T, F32Y
VL: B1 VL with V2I, S14T, L15P, D17E, Q18P, K50R, L88V, I90V, F92Y, G105Q
notes: VH of HuJovi-1 (CDRs of Jovi-1 grafted on IGHV1-2*02); constant region of the human IgG1 heavy chain; whole light chain (CDRs of Jovi-1 grafted on IGKV2-29*02, kappa constant from the AbVec kappa vector); IgG1; The section on CDR grafting names HEK293T as host, the section on antibody expression ExpiCHO; also called aTRBC1; source: ExpiCHO, transient transfection, purified (MabSelect SuRe)
B5: KFN (Mut3; HuJovi-1 VH T28K, Y32F, A96N), human IgG1 (antibody, V domains shown)
VH: B2 VH with A100N
VL: B1 VL with V2I, S14T, L15P, D17E, Q18P, K50R, L88V, I90V, F92Y, G105Q
notes: VH of KFN: as the VH of m1 (PDB 7AMP, 7AMQ) with the stated changes, positions in Kabat numbering; constant region of the human IgG1 heavy chain; as the light chain of m1; IgG1; also called Lys28/Phe32/Asn96; aTRBC2; source: ExpiCHO, transient transfection, purified (MabSelect SuRe)
B6: Mut7 (HuJovi-1 VH T28K, A96N), human IgG1 (antibody, V domains shown)
VH: B2 VH with F32Y, A100N
VL: B1 VL with V2I, S14T, L15P, D17E, Q18P, K50R, L88V, I90V, F92Y, G105Q
notes: as the VH of m1 with the stated changes; positions in Kabat numbering; constant region of the human IgG1 heavy chain; as the light chain of m1; IgG1; source: ExpiCHO, transient transfection, purified (MabSelect SuRe)
B7: KFN scFv-Fc (scFv, V domains shown)
VH: B2 VH with A100N
VL: B1 VL with V2I, S14T, L15P, D17E, Q18P, K50R, L88V, I90V, F92Y, G105Q
notes: scFv of KFN: VH and VL as in m6 (PDB 7AMS, 7AMR), that is the VH of m1 with the stated changes (Kabat numbering); scFv-Fc with a murine IgG2a Fc; captured on a Protein A chip; source: ExpiCHO, transient transfection, purified (MabSelect SuRe)
B8: HuJovi-1 scFv-Fc (scFv, V domains shown)
VH: B2 VH with K28T, F32Y
VL: B1 VL with V2I, S14T, L15P, D17E, Q18P, K50R, L88V, I90V, F92Y, G105Q
notes: scFv of HuJovi-1: VH and VL as in m1 (PDB 7AMP, 7AMQ); scFv-Fc with a murine IgG2a Fc; captured on a Protein A chip; source: ExpiCHO, transient transfection, purified (MabSelect SuRe)
B9: Mut1 (HuJovi-1 VH T28K), human IgG1 (antibody, V domains shown)
VH: B2 VH with F32Y
VL: B1 VL with V2I, S14T, L15P, D17E, Q18P, K50R, L88V, I90V, F92Y, G105Q
notes: as the VH of m1 with the stated change; positions in Kabat numbering; constant region of the human IgG1 heavy chain; as the light chain of m1; IgG1; also called Lys28 mutant; Thr28Lys; source: ExpiCHO, transient transfection, purified (MabSelect SuRe)
B10: Mut6 (HuJovi-1 VH A96N), human IgG1 (antibody, V domains shown)
VH: B2 VH with K28T, F32Y, A100N
VL: B1 VL with V2I, S14T, L15P, D17E, Q18P, K50R, L88V, I90V, F92Y, G105Q
notes: as the VH of m1 with the stated change; positions in Kabat numbering; constant region of the human IgG1 heavy chain; as the light chain of m1; IgG1; source: ExpiCHO, transient transfection, purified (MabSelect SuRe)
B11: Mut5 (HuJovi-1 VH Y32F), human IgG1 (antibody, V domains shown)
VH: B2 VH with K28T
VL: B1 VL with V2I, S14T, L15P, D17E, Q18P, K50R, L88V, I90V, F92Y, G105Q
notes: as for B10

Legend:
[1] = target: T1, Recombinant, purified TRBC1 (soluble αβ TCR with the β-chain constant domain TRBC1), SPR analyte (Homo sapiens, HA1.7 TCR with TRBC1)
Target sequence in this assay (main, as listed by the source, chain 1 of 2): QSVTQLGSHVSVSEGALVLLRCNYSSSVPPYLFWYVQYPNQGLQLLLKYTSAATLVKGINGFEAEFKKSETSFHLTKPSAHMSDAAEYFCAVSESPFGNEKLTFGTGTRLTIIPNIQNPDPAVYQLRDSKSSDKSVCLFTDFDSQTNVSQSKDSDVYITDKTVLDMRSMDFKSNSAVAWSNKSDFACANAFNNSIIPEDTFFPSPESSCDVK
Target sequence in this assay (partner, as listed by the source, chain 2 of 2): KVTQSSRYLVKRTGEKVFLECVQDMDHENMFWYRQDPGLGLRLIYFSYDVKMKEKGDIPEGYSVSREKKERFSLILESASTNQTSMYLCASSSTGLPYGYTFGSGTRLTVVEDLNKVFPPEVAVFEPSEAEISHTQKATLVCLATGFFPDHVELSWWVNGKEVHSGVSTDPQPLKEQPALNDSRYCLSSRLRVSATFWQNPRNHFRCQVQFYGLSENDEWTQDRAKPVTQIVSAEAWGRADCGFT

[2] = target: T2, TCR with the TRBC1 β-chain constant domain, on cells (Homo sapiens, UniProt P01848;P01850)
Target sequence in this assay (P01848 whole entry, chain 1 of 2, the tested form may be a part): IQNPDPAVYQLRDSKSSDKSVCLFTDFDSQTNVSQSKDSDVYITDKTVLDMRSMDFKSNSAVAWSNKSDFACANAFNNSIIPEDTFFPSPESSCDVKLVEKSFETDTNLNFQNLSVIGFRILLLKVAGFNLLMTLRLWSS
Target sequence in this assay (P01850 whole entry, chain 2 of 2, the tested form may be a part): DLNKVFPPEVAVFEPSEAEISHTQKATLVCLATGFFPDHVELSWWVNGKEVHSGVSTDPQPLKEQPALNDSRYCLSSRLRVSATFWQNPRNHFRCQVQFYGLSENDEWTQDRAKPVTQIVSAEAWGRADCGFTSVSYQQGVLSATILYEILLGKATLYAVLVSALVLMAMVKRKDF

[3] = target: T3, Recombinant, purified TRBC2 (soluble αβ TCR with the β-chain constant domain TRBC2), SPR analyte (Homo sapiens, HA1.7 TCR with TRBC2); assay: SPR; Biacore T200; antibody as human IgG1 captured with an anti-human capture kit on CM5 to 200 RU; TRBC1 or TRBC2 as analyte, 150 s contact, 300 s dissociation, 30 μl/min, 25 °C, HBS-P+ pH 7.4; 1:1 Langmuir model; conditions: both partners purified
T3 construct: also called recombinant TRBC2; source: recombinant, purified

[4] = target: T1, Recombinant, purified TRBC1 (soluble αβ …); assay: as above; conditions: both partners purified
[5] = target: T2, TCR with the TRBC1 β-chain constant …; assay: flow cytometry on cells; HPB-ALL TRBC1, HPB-ALL TRBC2 or HPB-ALL TCR KO cells; titration of IgG from 10 μg/ml in 2-fold dilutions, 30 min RT; anti-human IgG Alexa Fluor 647; conditions: one partner purified
Target sequence in this assay (P01850 whole entry, looked up, chain 1 of 2, the tested form may be a part): as the sequence (P01850 whole entry, chain 2 of 2, the tested form may be a part) above
Target sequence in this assay (P01848 whole entry, looked up, chain 2 of 2, the tested form may be a part): as the sequence (P01848 whole entry, chain 1 of 2, the tested form may be a part) above

[6] = target: TCR with the TRBC2 β-chain constant domain, on cells (Homo sapiens, UniProt P01848;A0A5B9); assay: flow cytometry on cells; staining of TCR+ cell lines with HuJovi-1 or KFN; conditions: one partner purified
[7] = target: T3, Recombinant, purified TRBC2 (soluble αβ …); assay: not stated; bi-paratopic (avid) engagement allowed; Supplementary Fig. 12
[8] = target: T3, Recombinant, purified TRBC2 (soluble αβ …); assay: SPR; Biacore T200; scFv-Fc captured on a Series S Protein A chip to 50 RU; TRBC1 or TRBC2 as analyte, 150 s contact, 500 s dissociation, 30 μl/min, 25 °C, HBS-P+ pH 7.4; 1:1 Langmuir model; conditions: both partners purified
[9] = target: T1, Recombinant, purified TRBC1 (soluble αβ …); assay: as above; conditions: both partners purified

TCR with the TRBC2 β-chain constant domain, on cells, sequence (A0A5B9 whole entry, looked up, chain 1 of 2, the tested form may be a part): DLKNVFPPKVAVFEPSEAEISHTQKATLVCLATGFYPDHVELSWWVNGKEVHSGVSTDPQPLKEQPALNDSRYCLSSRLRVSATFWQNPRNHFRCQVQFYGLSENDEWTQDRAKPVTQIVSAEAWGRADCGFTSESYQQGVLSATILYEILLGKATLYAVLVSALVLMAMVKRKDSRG
TCR with the TRBC2 β-chain constant domain, on cells, sequence (P01848 whole entry, looked up, chain 2 of 2, the tested form may be a part): as the sequence (P01848 whole entry, chain 1 of 2, the tested form may be a part) above

Binder | Kd [3] | koff [3] | Kd [4] | koff [4] | further results
B1 | – | – | – | – | Kd [1]: 1.6 nM; binding result [2]: binds
B2 | 999 nM | 0.125 s⁻¹ | 387 nM | 0.0689 s⁻¹ | –
B3 | 582 nM | 0.045 s⁻¹ | 1440 nM | 0.125 s⁻¹ | –
B4 | – | – | 2.57 nM | 0.000618 s⁻¹ | binding result [5]: binds
B5 | 479 nM | 0.0386 s⁻¹ | – | – | binding result [6]: binds; fold affinity differential TRBC1:TRBC2 with bi-paratopic engagement [7]: > 100 fold
B6 | 395 nM | 0.166 s⁻¹ | 36.5 nM | 0.00524 s⁻¹ | –
B7 | – | – | – | – | Kd [8]: 1170 nM; koff [8]: 0.0995 s⁻¹
B8 | – | – | – | – | Kd [9]: 7.51 nM; koff [9]: 0.003 s⁻¹
B9 | 7480 nM | 0.585 s⁻¹ | 6.69 nM | 0.001 s⁻¹ | –
B10 | 379 nM | 0.00194 s⁻¹ | 13.8 nM | 0.00197 s⁻¹ | –
B11 | – | – | 426 nM | 0.0457 s⁻¹ | –
